# Laboratory results from US10800847.
# Columns and labels:
# [1] = molecular target: HLA-A*0301 (A3) on single antigen beads (human) (UniProt P04439); assay: Luminex, iBead MFI against regular bead MFI, 1:8
# [2] = molecular target: Albumin on negative control beads (serum albumin, HSA/BSA) (human or bovine); assay: Luminex single antigen beads, regular beads (#7), 1:8
# [3] = molecular target: HLA-A*0301 (A3) on single antigen beads (human) (UniProt P04439); assay: Luminex single antigen beads, iBeads (#6), 1:8
# [4] = molecular target: Albumin on negative control beads (serum albumin, HSA/BSA) (human or bovine); assay: Luminex single antigen beads, iBeads (#6), 1:8
# [5] = molecular target: HLA-B*3901 (B39) single antigen on Luminex beads (human); assay: Luminex single antigen, iBeads (#6), IVIg 1:8
# [6] = molecular target: HLA-B*3801 (B38) single antigen on Luminex beads (human); assay: Luminex single antigen, iBeads (#6), IVIg 1:8
# [7] = molecular target: HLA-B*4101 (B41) single antigen on Luminex beads (human); assay: Luminex single antigen, iBeads (#6), IVIg 1:8
# [8] = molecular target: HLA-B*2705 (B27) single antigen on Luminex beads (human); assay: Luminex single antigen, iBeads (#6), IVIg 1:8
# [9] = molecular target: HLA-B*4402 (B44) single antigen on Luminex beads (human); assay: Luminex single antigen, iBeads (#6), IVIg 1:8
# [10] = molecular target: HLA-B*4701 (B47) single antigen on Luminex beads (human); assay: Luminex single antigen, iBeads (#6), IVIg 1:8
# [11] = molecular target: HLA-B*3501 (B35) single antigen on Luminex beads (human); assay: Luminex single antigen, iBeads (#6), IVIg 1:8
# [12] = molecular target: HLA-B*4201 (B42) single antigen on Luminex beads (human); assay: Luminex single antigen, iBeads (#6), IVIg 1:8
# [13] = molecular target: HLA-B*4501 (B45) single antigen on Luminex beads (human); assay: Luminex single antigen, iBeads (#6), IVIg 1:8
# [14] = molecular target: HLA-B*4001 (B60) single antigen on Luminex beads (human); assay: Luminex single antigen, iBeads (#6), IVIg 1:8
# [15] = molecular target: HLA-B*2708 (B27) single antigen on Luminex beads (human); assay: Luminex single antigen, iBeads (#6), IVIg 1:8
# [16] = molecular target: HLA-B*3701 (B37) single antigen on Luminex beads (human); assay: Luminex single antigen, iBeads (#6), IVIg 1:8
# [17] = molecular target: HLA-B*4002 (B61) single antigen on Luminex beads (human); assay: Luminex single antigen, iBeads (#6), IVIg 1:8
# [18] = molecular target: HLA-B*4403 (B44) single antigen on Luminex beads (human); assay: Luminex single antigen, iBeads (#6), IVIg 1:8
# [19] = molecular target: HLA-B*4006 (B61) single antigen on Luminex beads (human); assay: Luminex single antigen, iBeads (#6), IVIg 1:8
# [20] = molecular target: HLA-B*3901 (B39) single antigen on Luminex beads (human); assay: Luminex single antigen, regular beads (#7), IVIg 1:8
# [21] = molecular target: HLA-B*3801 (B38) single antigen on Luminex beads (human); assay: as above
# [22] = molecular target: HLA-B*4601 (B46) single antigen on Luminex beads (human); assay: as above
# [23] = molecular target: HLA-B*2705 (B27) single antigen on Luminex beads (human); assay: as above
# [24] = molecular target: HLA-B*4701 (B47) single antigen on Luminex beads (human); assay: as above
# [25] = molecular target: HLA-B*3501 (B35) single antigen on Luminex beads (human); assay: as above
# [26] = molecular target: HLA-B*4201 (B42) single antigen on Luminex beads (human); assay: as above
# [27] = molecular target: HLA-B*4501 (B45) single antigen on Luminex beads (human); assay: as above
# [28] = molecular target: HLA-B*4001 (B60) single antigen on Luminex beads (human); assay: as above
# [29] = molecular target: HLA-B*3701 (B37) single antigen on Luminex beads (human); assay: as above
# [30] = molecular target: HLA-B*4403 (B44) single antigen on Luminex beads (human); assay: as above
# [31] = molecular target: HLA-B*4006 (B61) single antigen on Luminex beads (human); assay: as above
# [32] = molecular target: HLA-B*4601 (B46) single antigen on Luminex beads (human); assay: Luminex single antigen, iBead vs regular bead, IVIg 1:8
# [33] = molecular target: HLA-B*2705 (B27) single antigen on Luminex beads (human); assay: as above
# [34] = molecular target: HLA-B*4402 (B44) single antigen on Luminex beads (human); assay: as above
# [35] = molecular target: HLA-B*4701 (B47) single antigen on Luminex beads (human); assay: as above
# [36] = molecular target: HLA-B*3501 (B35) single antigen on Luminex beads (human); assay: as above
# [37] = molecular target: HLA-B*4201 (B42) single antigen on Luminex beads (human); assay: as above
# [38] = molecular target: HLA-B*4501 (B45) single antigen on Luminex beads (human); assay: as above
# [39] = molecular target: HLA-B*2708 (B27) single antigen on Luminex beads (human); assay: as above
# [40] = molecular target: HLA-B*3701 (B37) single antigen on Luminex beads (human); assay: as above
# [41] = molecular target: HLA-B*4006 (B61) single antigen on Luminex beads (human); assay: as above
# [42] = molecular target: Albumin on negative control beads (serum albumin, HSA/BSA) (human or bovine); assay: Luminex, iBead MFI against regular bead MFI, 1:8
# [43] = molecular target: HLA-A*0301 (A3) on single antigen beads (human) (UniProt P04439); assay: Luminex single antigen beads, regular beads (#7), 1:8
# [44] = molecular target: HLA-B*4601 (B46) single antigen on Luminex beads (human); assay: Luminex single antigen, iBeads (#6), IVIg 1:8
# [45] = molecular target: HLA-B*4101 (B41) single antigen on Luminex beads (human); assay: Luminex single antigen, regular beads (#7), IVIg 1:8
# [46] = molecular target: HLA-B*4402 (B44) single antigen on Luminex beads (human); assay: as above
# [47] = molecular target: HLA-B*2708 (B27) single antigen on Luminex beads (human); assay: as above
# [48] = molecular target: HLA-B*4002 (B61) single antigen on Luminex beads (human); assay: as above
# [49] = molecular target: HLA-B*3801 (B38) single antigen on Luminex beads (human); assay: Luminex single antigen, iBead vs regular bead, IVIg 1:8
# [50] = molecular target: HLA-B*4002 (B61) single antigen on Luminex beads (human); assay: as above
# [51] = molecular target: HLA-B*4403 (B44) single antigen on Luminex beads (human); assay: as above
substance,measurement,setting,value
"GamaSTAN S/D (IVIg, Talecris Biotherapeutics, Inc., USA) (antibody)",Difference % (iBead against regular bead),[1],-100%
same,MFI,[2],3790 MFI
same,MFI,[3],0 MFI
same,MFI,[4],5030 MFI
same,MFI,[5],0 MFI
same,MFI,[6],0 MFI
same,MFI,[7],870 MFI
same,MFI,[8],1080 MFI
same,MFI,[9],3380 MFI
same,MFI,[10],3210 MFI
same,MFI,[11],653 MFI
same,MFI,[12],286 MFI
same,MFI,[13],5400 MFI
same,MFI,[14],2290 MFI
same,MFI,[15],1410 MFI
same,MFI,[16],392 MFI
same,MFI,[17],1190 MFI
same,MFI,[18],2900 MFI
same,MFI,[19],2370 MFI
same,MFI,[20],0 MFI
same,MFI,[21],619 MFI
same,MFI,[22],1830 MFI
same,MFI,[23],1370 MFI
same,MFI,[24],1770 MFI
same,MFI,[25],680 MFI
same,MFI,[26],598 MFI
same,MFI,[27],3670 MFI
same,MFI,[28],1720 MFI
same,MFI,[29],3240 MFI
same,MFI,[30],3390 MFI
same,MFI,[31],3470 MFI
same,Difference % (iBead against regular bead MFI),[32],-20%
same,Difference % (iBead against regular bead MFI),[33],-21%
same,Difference % (iBead against regular bead MFI),[34],-22%
same,Difference % (iBead against regular bead MFI),[35],81%
same,Difference % (iBead against regular bead MFI),[36],-4%
same,Difference % (iBead against regular bead MFI),[37],-52%
same,Difference % (iBead against regular bead MFI),[38],47%
same,Difference % (iBead against regular bead MFI),[39],32%
same,Difference % (iBead against regular bead MFI),[40],-88%
same,Difference % (iBead against regular bead MFI),[41],-32%
Gamunex-C Lot NKLG1 (IVIg) (antibody),Difference % (iBead against regular bead),[42],-34%
same,MFI,[43],0 MFI
same,MFI,[2],10800 MFI
same,MFI,[4],7150 MFI
same,MFI,[5],242 MFI
same,MFI,[6],1380 MFI
same,MFI,[44],3540 MFI
same,MFI,[7],1490 MFI
same,MFI,[8],1660 MFI
same,MFI,[9],1870 MFI
same,MFI,[10],2800 MFI
same,MFI,[11],1610 MFI
same,MFI,[12],1090 MFI
same,MFI,[13],2110 MFI
same,MFI,[15],1340 MFI
same,MFI,[16],3640 MFI
same,MFI,[17],1680 MFI
same,MFI,[18],2400 MFI
same,MFI,[19],2140 MFI
same,MFI,[20],0 MFI
same,MFI,[21],1360 MFI
same,MFI,[22],3010 MFI
same,MFI,[45],716 MFI
same,MFI,[23],388 MFI
same,MFI,[46],6460 MFI
same,MFI,[24],2550 MFI
same,MFI,[25],1670 MFI
same,MFI,[26],455 MFI
same,MFI,[27],1110 MFI
same,MFI,[28],1680 MFI
same,MFI,[47],0 MFI
same,MFI,[29],6130 MFI
same,MFI,[48],569 MFI
same,MFI,[30],1110 MFI
same,MFI,[31],5390 MFI
same,Difference % (iBead against regular bead MFI),[49],1%
same,Difference % (iBead against regular bead MFI),[32],17%
same,Difference % (iBead against regular bead MFI),[33],327%
same,Difference % (iBead against regular bead MFI),[34],-71%
same,Difference % (iBead against regular bead MFI),[35],10%
same,Difference % (iBead against regular bead MFI),[36],-3%
same,Difference % (iBead against regular bead MFI),[37],139%
same,Difference % (iBead against regular bead MFI),[38],91%
same,Difference % (iBead against regular bead MFI),[40],-41%
same,Difference % (iBead against regular bead MFI),[50],195%
same,Difference % (iBead against regular bead MFI),[51],116%
same,Difference % (iBead against regular bead MFI),[41],-60%
